From article PMC3156093

Target: EcoRV restriction endonuclease (UniProt P04390 1-245)
Test: competition

EcoRV restriction endonuclease, sequence (P04390 whole entry): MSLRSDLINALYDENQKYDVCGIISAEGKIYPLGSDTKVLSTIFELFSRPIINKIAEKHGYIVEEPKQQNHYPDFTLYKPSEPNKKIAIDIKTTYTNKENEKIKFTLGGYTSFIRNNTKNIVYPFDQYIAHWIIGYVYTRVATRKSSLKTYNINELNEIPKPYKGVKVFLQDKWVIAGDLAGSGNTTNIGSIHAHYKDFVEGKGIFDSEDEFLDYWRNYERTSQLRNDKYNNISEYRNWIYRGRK

B1: 30 bp specific site oligonucleotide (dsDNA)
DNA 1: CGGGCCTCTTGCGGGATATCGTCCATTCCG
DNA 2: CGGAATGGACGATATCCCGCAAGAGGCCCG
With B1 the binding signal was < 9 % N1 complex remaining at 30-fold excess competitor.
